Results taken from patent publication US10670612B2, “Immunoassay standards and measurement of clinical biomarkers using intra-assay calibration standards” (Saladax Biomedical, Inc., priority 2010, dated 2020).
Ends that are not written are not given here.

Assay: Dynamic light scattering
Type: physicochemical
Conditions: phosphate buffer pH 7.4, 25° C.
Protocol: One set was prepared at 1.0 mg/ml, the second set was prepared at 0.10 mg/ml, and stored at room temperature. Peptides were dissolved by vortexing for 1 min, and centrifuged in a microcentrifuge for 5 min at 14,000 rpm, at room temperature. For Aβ42 samples (MSD), vials containing 0.1 mg peptide were suspended in 1.0 ml buffer, and treated as above. A volume (200 μl) of each centrifuged 1.0 mg/ml stock was transferred to a 0.5 ml polypropylene tube, and provided for NMR analysis.
The absorbance spectra of all samples were recorded (220-750 nm) using a NANODROP® ND-1000 instrument, and blanked against the buffer. Dynamic light scattering analysis was conducted on the peptides in a 384 well polystyrene plate (CORNING®, type 3540) with a Wyatt DLS DynaPro plate reader. Data collection and analysis was completed using software from the manufacturer (DYNAMICS, versions 7.0.0.94 and 7.0.1.12). Each peptide was evaluated in triplicate with 30 μl loaded per well, and overlaid with 5 μl mineral oil, to minimize evaporation. Buffer blanks were also included in the analysis for comparison. After loading the plate, a transparent adhesive sealing tape cover was applied to the plate and the plate was centrifuged for 2 min at 1000 rpm. Each sample on the plate was read 30 times, 5 sec per acquisition, maintaining a temperature of 25° C. Data sets were collected on both the 1.0 mg/ml and 0.10 mg/ml samples over the course of 27 days. The adhesive cover was removed to read the samples in the plate reader, and used to cover the plate between readings over the 27 day time course.
FIGS. 7A through 7F show dynamic light scattering data. In FIGS. 7A-F, the full length Aβ42 peptide was subjected to DLS analysis and compared to four representative modified peptides. […] FIG. 7a represents the raw data accumulated for all five peptides. Shown is the intensity autocorrelation versus time. […] FIGS. 7b-7f depict the percent mass versus the radius of the peptides. Monomeric peptides would be represented by a larger percent mass at the smaller radius size.

DAEFRHDSGYEVHHQKEERPIGLMVGGVVIA (not fully specified) [GS#4, native Aβ42 amino acids (1-16)-EERP-native Aβ42 amino acids (32-42)]
% Intensity (DLS Peak 1): 3.8%
% Mass (DLS Peak 1): 97.7%
% Pd (DLS Peak 1): 3.2%
Mw-R (DLS Peak 1): 6.0 kDa
Radius (DLS Peak 1): 1.3 nm
% Intensity (DLS Peak 2): 0.6%
% Mass (DLS Peak 2): 0.2%
% Pd (DLS Peak 2): 0.0%
Mw-R (DLS Peak 2): 225.0 kDa
Radius (DLS Peak 2): 6.0 nm
% Intensity (DLS Peak 3): 5.2%
% Mass (DLS Peak 3): 0.0%
% Pd (DLS Peak 3): 4.5%
Mw-R (DLS Peak 3): 7527.0 kDa
Radius (DLS Peak 3): 27.0 nm
% Intensity (DLS Peak 4): 25.1%
% Mass (DLS Peak 4): 0.2%
% Pd (DLS Peak 4): 4.3%
Mw-R (DLS Peak 4): 283287.0 kDa
Radius (DLS Peak 4): 127.0 nm
